Values belong to the substance of their own block, whether it stands above or below them.
Experiments:
Focal adhesion kinase [1] = molecular target: Focal adhesion kinase (UniProt Q05397)
N-WASP = N-WASP (UniProt O00401)
Nck = Nck (UniProt P16333)
phosphorylated Nephrin = phosphorylated Nephrin (UniProt O60500)
His6-sumo-kindlin = His6-sumo-kindlin (UniProt Q96AC1)
Focal adhesion kinase [2] = molecular target: Focal adhesion kinase (UniProt Q05397); remark: listed apart in the source

His6-sumo-kindlin (from UniProt Q96AC1 1-680) (natural protein), sequence (Q96AC1 whole entry): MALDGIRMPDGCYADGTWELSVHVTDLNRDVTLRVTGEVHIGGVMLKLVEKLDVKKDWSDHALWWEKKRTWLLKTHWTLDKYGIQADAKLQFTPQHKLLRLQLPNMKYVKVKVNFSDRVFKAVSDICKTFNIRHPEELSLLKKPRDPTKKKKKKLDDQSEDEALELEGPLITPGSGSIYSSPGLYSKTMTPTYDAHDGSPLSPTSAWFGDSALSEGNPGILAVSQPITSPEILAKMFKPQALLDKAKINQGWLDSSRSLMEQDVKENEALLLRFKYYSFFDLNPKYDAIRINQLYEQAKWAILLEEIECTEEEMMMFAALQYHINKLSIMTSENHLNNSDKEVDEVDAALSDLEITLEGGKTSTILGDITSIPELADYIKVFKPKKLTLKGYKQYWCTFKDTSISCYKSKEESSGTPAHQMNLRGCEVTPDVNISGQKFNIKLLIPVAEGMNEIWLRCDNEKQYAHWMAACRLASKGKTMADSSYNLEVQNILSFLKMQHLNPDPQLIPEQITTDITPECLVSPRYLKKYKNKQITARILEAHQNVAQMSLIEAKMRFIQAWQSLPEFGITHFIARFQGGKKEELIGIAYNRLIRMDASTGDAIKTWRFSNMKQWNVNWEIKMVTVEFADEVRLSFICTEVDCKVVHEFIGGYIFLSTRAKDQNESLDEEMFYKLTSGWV
His6-sumo-kindlin (UniProt Q96AC1), sequence (Q96AC1 whole entry): as above
β1 integrin cytoplasmic tail-GFP, sequence (P05556 752-798): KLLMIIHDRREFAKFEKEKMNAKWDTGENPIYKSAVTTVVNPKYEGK
phosphorylated Nephrin, sequence (O60500 23-1241): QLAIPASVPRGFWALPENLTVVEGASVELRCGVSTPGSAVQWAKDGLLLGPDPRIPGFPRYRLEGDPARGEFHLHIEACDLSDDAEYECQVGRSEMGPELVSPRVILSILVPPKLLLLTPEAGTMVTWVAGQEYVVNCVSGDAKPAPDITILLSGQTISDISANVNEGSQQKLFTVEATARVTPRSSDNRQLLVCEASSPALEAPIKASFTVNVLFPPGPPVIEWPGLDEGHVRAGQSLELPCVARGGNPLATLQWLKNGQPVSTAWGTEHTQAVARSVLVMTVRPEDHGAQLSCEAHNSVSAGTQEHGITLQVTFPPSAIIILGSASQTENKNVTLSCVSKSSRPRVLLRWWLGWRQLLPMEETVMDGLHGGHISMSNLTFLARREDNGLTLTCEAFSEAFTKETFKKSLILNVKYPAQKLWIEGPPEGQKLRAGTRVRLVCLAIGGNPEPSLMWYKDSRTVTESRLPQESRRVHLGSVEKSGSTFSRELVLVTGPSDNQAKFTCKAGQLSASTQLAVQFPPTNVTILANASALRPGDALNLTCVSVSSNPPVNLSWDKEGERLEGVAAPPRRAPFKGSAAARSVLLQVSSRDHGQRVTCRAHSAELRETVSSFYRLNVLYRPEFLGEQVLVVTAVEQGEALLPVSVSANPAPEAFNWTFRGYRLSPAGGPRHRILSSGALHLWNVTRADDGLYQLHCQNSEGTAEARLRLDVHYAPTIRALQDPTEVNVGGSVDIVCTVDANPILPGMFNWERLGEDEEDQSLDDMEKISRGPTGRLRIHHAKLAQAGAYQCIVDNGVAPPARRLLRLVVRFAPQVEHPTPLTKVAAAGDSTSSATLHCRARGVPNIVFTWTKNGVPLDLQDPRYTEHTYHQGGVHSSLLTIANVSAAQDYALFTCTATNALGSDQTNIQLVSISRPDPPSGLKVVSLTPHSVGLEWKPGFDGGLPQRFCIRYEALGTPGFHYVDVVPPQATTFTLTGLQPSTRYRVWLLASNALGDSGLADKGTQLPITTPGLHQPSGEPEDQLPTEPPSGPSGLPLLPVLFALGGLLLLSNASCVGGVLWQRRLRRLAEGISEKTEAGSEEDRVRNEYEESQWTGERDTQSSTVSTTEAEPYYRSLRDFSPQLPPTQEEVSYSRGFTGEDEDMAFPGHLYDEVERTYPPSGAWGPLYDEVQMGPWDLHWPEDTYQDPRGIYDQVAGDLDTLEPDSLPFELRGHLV
N-WASP, sequence (O00401 whole entry): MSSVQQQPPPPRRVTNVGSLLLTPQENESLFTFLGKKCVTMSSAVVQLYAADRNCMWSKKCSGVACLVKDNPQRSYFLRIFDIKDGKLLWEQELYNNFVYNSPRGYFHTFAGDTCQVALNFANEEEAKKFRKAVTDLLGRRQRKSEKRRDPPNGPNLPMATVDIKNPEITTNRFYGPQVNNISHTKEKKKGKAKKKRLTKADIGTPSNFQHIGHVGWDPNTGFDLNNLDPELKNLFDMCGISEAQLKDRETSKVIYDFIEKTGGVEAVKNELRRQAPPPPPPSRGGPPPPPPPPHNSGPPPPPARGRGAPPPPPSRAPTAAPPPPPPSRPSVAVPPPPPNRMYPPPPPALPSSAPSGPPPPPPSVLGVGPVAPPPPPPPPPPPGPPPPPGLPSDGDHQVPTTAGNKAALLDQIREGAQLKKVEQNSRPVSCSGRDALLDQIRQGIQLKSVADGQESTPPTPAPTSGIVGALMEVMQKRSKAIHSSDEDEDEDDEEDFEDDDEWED
Paxillin, sequence (P49023 whole entry): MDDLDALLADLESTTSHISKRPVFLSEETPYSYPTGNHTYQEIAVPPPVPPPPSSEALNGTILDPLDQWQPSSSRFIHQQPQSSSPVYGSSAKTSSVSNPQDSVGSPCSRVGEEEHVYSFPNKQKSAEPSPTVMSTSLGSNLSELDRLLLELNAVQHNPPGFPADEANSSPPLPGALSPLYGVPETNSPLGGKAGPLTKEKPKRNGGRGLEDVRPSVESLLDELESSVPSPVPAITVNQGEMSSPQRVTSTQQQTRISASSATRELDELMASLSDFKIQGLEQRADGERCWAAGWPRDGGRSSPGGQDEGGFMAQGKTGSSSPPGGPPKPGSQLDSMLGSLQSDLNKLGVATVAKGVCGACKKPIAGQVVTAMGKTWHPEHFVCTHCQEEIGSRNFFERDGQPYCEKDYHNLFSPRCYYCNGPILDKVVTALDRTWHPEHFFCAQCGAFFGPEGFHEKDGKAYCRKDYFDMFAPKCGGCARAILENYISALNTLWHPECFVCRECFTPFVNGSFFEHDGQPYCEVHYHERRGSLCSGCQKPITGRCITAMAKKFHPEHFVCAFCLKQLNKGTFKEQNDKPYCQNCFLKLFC
Focal adhesion kinase (from UniProt Q05397 1-1052) (enzyme), sequence (Q05397 whole entry): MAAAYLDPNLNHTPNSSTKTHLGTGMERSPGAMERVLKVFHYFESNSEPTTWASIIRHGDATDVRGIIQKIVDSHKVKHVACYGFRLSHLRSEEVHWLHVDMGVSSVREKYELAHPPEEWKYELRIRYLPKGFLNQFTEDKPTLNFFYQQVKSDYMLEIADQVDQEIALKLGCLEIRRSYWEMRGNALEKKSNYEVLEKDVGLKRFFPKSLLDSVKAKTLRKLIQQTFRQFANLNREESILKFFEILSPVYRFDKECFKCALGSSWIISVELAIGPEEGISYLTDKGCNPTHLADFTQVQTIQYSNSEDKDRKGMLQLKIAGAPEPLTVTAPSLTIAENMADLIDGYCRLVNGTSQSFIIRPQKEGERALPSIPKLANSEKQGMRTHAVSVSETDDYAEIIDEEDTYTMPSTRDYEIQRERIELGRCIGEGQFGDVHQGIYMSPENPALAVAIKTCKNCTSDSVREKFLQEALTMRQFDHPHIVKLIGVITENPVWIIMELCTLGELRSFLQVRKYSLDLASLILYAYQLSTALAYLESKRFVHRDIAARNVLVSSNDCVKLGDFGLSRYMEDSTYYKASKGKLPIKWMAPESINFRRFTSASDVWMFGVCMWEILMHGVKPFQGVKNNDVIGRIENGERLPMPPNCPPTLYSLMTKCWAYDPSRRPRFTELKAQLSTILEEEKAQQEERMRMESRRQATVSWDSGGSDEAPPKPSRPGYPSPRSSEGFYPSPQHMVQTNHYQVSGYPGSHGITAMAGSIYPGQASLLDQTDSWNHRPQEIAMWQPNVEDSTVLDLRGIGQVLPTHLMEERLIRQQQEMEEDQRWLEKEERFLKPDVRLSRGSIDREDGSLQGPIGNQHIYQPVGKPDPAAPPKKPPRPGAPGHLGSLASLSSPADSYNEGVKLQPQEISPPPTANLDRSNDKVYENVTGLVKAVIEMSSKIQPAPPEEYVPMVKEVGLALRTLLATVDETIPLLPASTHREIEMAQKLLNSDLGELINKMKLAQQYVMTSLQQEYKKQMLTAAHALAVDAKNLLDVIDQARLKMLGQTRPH
Focal adhesion kinase (UniProt Q05397), sequence (Q05397 whole entry): as above

FAK enrichment (partitioning) in droplets, 1 uM FAK with 1 uM paxillin against 1 uM FAK alone (Focal adhesion kinase [1]): 2 fold
Substance: Paxillin (from UniProt P49023 1-591) (natural protein)

kindlin partition coefficient (PC) in droplets of 5 uM each phosphorylated Nephrin, Nck and N-WASP with 1 uM kindlin (10% Alexa546), lacking pCas (N-WASP): 1
kindlin partition coefficient (PC) in droplets of 5 uM each phosphorylated Nephrin, Nck and N-WASP with 1 uM kindlin (10% Alexa546), lacking pCas (Nck): 1
kindlin partition coefficient (PC) in droplets of 5 uM each phosphorylated Nephrin, Nck and N-WASP with 1 uM kindlin (10% Alexa546), lacking pCas (phosphorylated Nephrin): 1
Substance: His6-sumo-kindlin (from UniProt Q96AC1 1-680) (natural protein)

integrin-GFP partition coefficient (PC) in droplets of 1 uM each pCas, Nck, N-WASP, FAK, paxillin and β1 integrin tail with 1 uM kindlin (PC = 1.2 without kindlin) (His6-sumo-kindlin): 3
Substance: β1 integrin cytoplasmic tail-GFP (from UniProt P05556 752-798) (domain or fragment)

solution turbidity (absorbance at 350 nm) with increasing concentrations of FAK; concentration from which turbidity rises (Focal adhesion kinase [2]): 100 nM
Substance: Focal adhesion kinase (from UniProt Q05397 1-1052) (enzyme)

— paper PMC8791637
